From US20180291103A1 come the findings set out here.

The target in experiment [1] is PDL1-Fc fusion protein (human PDL1-Fc) (human). Kind of experiment: ELISA; OD on PDL1-Fc divided by OD on Fc protein, control group well (row 'blank'). A general note: ELISA stands for enzyme-linked immunosorbent assay.
For experiment [2] the target is unchanged. Briefly: ELISA; PDL1-Fc coated, control group well (row 'blank'), anti-His detection, 405 nm.
The next experiment concerns the target Fc protein. Briefly: ELISA; Fc protein coated, control group well (row 'blank'), anti-His detection, 405 nm.
Experiment [3] addresses Mouse PDL1-Fc protein (mouse). Kind of experiment: ELISA; mouse PDL1-Fc coated at 0.5 µg/well, control group well (row 'blank'), anti-His detection, 405 nm.
Experiment [4] addresses PDL1-Fc fusion protein (human PDL1-Fc) (human). Kind of experiment: SPR, BIAcore X100; PDL1-Fc on CM5 chip, antibody as analyte, 25 C. For orientation: In SPR one partner is held on a chip, and binding of the other changes the refractive index at the surface.

Sequence of PDL1-Fc fusion protein (human PDL1-Fc) (human) (chain, as listed by the source limits assumed): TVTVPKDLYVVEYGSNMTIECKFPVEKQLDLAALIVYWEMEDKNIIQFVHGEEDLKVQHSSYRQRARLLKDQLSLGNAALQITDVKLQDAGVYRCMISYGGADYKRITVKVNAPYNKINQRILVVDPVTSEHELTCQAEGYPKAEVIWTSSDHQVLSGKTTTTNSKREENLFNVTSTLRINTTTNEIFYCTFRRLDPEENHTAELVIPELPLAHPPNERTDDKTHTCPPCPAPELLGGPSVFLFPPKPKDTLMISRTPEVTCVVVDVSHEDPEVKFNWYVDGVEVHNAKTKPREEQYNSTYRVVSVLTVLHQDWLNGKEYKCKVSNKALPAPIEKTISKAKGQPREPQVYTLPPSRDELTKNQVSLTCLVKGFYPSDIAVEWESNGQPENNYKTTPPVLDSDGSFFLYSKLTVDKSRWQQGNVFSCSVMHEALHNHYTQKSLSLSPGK
Sequence of Mouse PDL1-Fc protein (mouse) (chain, as listed by the source limits assumed): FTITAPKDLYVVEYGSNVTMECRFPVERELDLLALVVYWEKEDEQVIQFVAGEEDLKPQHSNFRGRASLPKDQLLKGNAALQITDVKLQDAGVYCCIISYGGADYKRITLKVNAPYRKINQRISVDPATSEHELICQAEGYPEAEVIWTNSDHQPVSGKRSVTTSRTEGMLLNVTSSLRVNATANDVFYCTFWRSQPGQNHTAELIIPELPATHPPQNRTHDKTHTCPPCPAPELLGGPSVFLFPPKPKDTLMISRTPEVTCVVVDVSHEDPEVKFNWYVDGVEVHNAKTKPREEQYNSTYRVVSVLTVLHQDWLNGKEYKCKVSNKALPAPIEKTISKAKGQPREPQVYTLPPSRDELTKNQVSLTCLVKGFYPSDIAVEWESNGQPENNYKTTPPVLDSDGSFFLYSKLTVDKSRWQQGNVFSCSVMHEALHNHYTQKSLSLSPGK

On to “control single domain antibody against other unrelated target (control group of the ELISA; table row 'blank') (VHH)”, for which the OD (PDL1/Fc) in experiment [1] was 0.75. For the same substance, the OD (against PDL1) in experiment [2] amounted to 0.054 OD. The substance further yielded an OD (against Fc) with Fc protein of 0.072 OD. This substance returned an OD (against mouse PDL1) in experiment [3] of 0.096 OD.

What is called Kd is a measure of binding affinity in units of concentration. For the substance 243.55 (anti-PDL1 antibody of Roche), the dissociation constant (Kd) in experiment [4] worked out at 0.135 nM.
